# Experimental data: patent US7279304B2, “Methods for preparation of macrocyclic molecules and macrocyclic molecules prepared thereby” (President and Fellows of Harvard College, priority 2000, dated 2007)
# B1: TycC TE (excised TE domain protein from the tyrocidine NRPS) (Brevibacillus parabrevis) (protein)
# chain: FESRYGTAILLNQETARNVFCFTPIGAQSVYYQKLAAEIQGVSLYSFDFIQDDNRMEQYIAAITAIDPSGPYTLMGYSSGGNLAFEVAKELEERGYGVTDIILFDSYWKDKAIERTVAETENDIAQLFAEIGENTEMFNMTQEDFQLYAANEFVKQSFVRKTVSYVMFHNNLVNTGMTTAAIHLIQSELEADEEAPVAAKWNESAWANATQRLLTYSGHGIHSRMLAGDYASQNASILQNILQELFILK
# notes: excised TE domain protein from the tyrocidine NRPS (TycC TE); made in house
# How the values were obtained:
# Experiment in all cases: purified protein, by the assay type
# Format in all cases: biochemical
# [1] = substrate: CC(=O)NCCSC(=O)[C@H](CC(C)C)NC(=O)[C@H](CCCN)NC(=O)[C@@H](Cc1ccccc1)NC(=O)[C@H](CC(C)C)NC(=O)[C@H](CCCN)NC(=O)[C@H](N)Cc1ccccc1; settings: other: Table 2; cyclization of peptide-SNAC substrates of 6-14 amino acids
# Method: (§1) Macrocyclization reactions were carried out in 25 mM MOPS, pH 7.0 in a total volume of 400 μL. Reactions were initiated by addition of TycC TE and quenched at various time points by the addition of 25 μL 1.7% TFA/water, flash frozen in liquid nitrogen and stored at −80° C. (for Ex. 13, reactions were quenched by the addition of sodium phosphate, pH 5.3, to 100 mM). The reactions were then thawed, 85 μL acetonitrile added, and analyzed by analytical HPLC with monitoring at 220 nm (20% to 80% acetonitrile in 0.1% TFA/water, or in 25 mM potassium phosphate, pH 5.3 for Ex. 13, over 35 minutes, Vydac protein and peptide C18 column). Initial rates were calculated using 1 minute time points. Peptide-SNAC and reaction product concentrations were determined for all Tyr-containing peptides based on the estimated extinction coefficient ε (280 nm)=1,280 M^−1 cm^−1, which agrees with the experimentally determined ε (280 nm) of Ex. 1. For peptide-SNACs not containing Tyr, ε (220 nm) was determined experimentally, and concentrations of corresponding cyclic products determined by assuming equal ε (220 nm) values for the peptide-SNAC and cyclic product.
# [2] = substrate: CC(=O)NCCSC(=O)[C@H](CC(C)C)NC(=O)[C@H](CCCN)NC(=O)[C@@H](NC(=O)[C@H](CC(C)C)NC(=O)[C@@H]1CCCN1C(=O)[C@@H](Cc1ccccc1)NC(=O)[C@H](CC(C)C)NC(=O)[C@H](CCCN)NC(=O)[C@@H](NC(=O)[C@H](CC(C)C)NC(=O)[C@@H]1CCCN1C(=O)[C@H](N)Cc1ccccc1)C(C)C)C(C)C; settings: other: Table 2; cyclization of peptide-SNAC substrates of 6-14 amino acids
# Method: as §1
# [3] = substrate: CC(=O)NCCSC(=O)[C@H](CC(C)C)NC(=O)[C@H](CCCN)NC(=O)[C@@H](NC(=O)[C@H](Cc1ccc(O)cc1)NC(=O)[C@H](C)NC(=O)[C@H](CC(N)=O)NC(=O)[C@@H](Cc1ccccc1)NC(=O)[C@H](Cc1ccccc1)NC(=O)[C@@H]1CCCN1C(=O)[C@H](N)Cc1ccccc1)C(C)C; settings: other: Table 1; macrocyclization of peptide-SNAC substrate; 25 mM MOPS, pH 7.0
# Method: as §1
# [4] = substrate: CC(=O)NCCSC(=O)[C@H](CC(C)C)NC(=O)[C@H](CCCN)NC(=O)[C@@H](NC(=O)[C@H](CC(C)C)NC(=O)[C@@H](NC(=O)[C@@H]1CCCN1C(=O)[C@@H](Cc1ccccc1)NC(=O)[C@H](CC(C)C)NC(=O)[C@H](CCCN)NC(=O)[C@@H](NC(=O)[C@H](CC(C)C)NC(=O)[C@@H](NC(=O)[C@@H]1CCCN1C(=O)[C@H](N)Cc1ccccc1)C(C)C)C(C)C)C(C)C)C(C)C; settings: other: Table 2; cyclization of peptide-SNAC substrates of 6-14 amino acids
# Method: as §1
# [5] = substrate: CC(=O)NCCSC(=O)[C@H](CC(C)C)NC(=O)[C@H](CCCN)NC(=O)[C@@H](NC(=O)[C@H](Cc1ccc(O)cc1)NC(=O)[C@H](CCC(N)=O)NC(=O)[C@H](CC(N)=O)NC(=O)[C@@H](Cc1ccccc1)NC(=O)[C@H](C)NC(=O)[C@@H]1CCCN1C(=O)[C@H](N)Cc1ccccc1)C(C)C; settings: other: Table 1; macrocyclization of peptide-SNAC substrate; 25 mM MOPS, pH 7.0
# Method: as §1
protein,measurement,setting,value
B1,Km,[1],4 µM
same,kcat,[1],0.5 s⁻¹
same,Km,[2],6 µM
same,kcat,[2],0.367 s⁻¹
same,Km,[3],4 µM
same,Km,[4],5 µM
same,kcat,[4],0.1 s⁻¹
same,Km,[5],6 µM
